Test results published in patent publication US20090214603A1 (UNIVERSITY OF LOUISVILLE RESEARCH FOUNDATION, published 2009).

What was measured:
Assay in all cases: cell-based or functional assay
[1] = target: minor fimbrial antigen Mfa1 of Porphyromonas gingivalis, on intact P. gingivalis ATCC 33277 cells (Porphyromonas gingivalis) (UniProt B2RHG1)
[2] = target: recombinant Mfa1 protein (rMfa1), full-length Mfa1 of P. gingivalis 33277 with a C-terminal penta-histidine tag (Porphyromonas gingivalis) (UniProt B2RHG1)
Sequence of recombinant Mfa1 protein (rMfa1), full-length Mfa1 of P. gingivalis 33277 with a C-terminal penta-histidine tag (Porphyromonas gingivalis) (B2RHG1 20-563, tags left off): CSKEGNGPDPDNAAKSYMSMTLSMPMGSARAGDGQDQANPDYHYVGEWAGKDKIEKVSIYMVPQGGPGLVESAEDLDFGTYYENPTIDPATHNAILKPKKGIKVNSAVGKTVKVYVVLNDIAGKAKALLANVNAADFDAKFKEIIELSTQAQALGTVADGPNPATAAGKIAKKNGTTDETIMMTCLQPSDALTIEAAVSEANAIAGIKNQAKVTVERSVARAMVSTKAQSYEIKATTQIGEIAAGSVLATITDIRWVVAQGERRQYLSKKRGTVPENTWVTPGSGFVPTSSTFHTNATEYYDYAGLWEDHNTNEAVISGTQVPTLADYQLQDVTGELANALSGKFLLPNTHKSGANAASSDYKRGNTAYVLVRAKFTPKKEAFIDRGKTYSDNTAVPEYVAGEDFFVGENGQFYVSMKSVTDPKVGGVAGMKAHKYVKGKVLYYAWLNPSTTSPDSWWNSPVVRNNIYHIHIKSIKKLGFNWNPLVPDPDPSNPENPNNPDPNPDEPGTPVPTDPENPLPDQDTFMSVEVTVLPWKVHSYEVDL

[3] = target: T1, minor fimbrial antigen Mfa1 of Porphyromonas gingivalis, on intact P. gingivalis ATCC 33277 cells (Porphyromonas gingivalis, UniProt B2RHG1 50-563)
T1 sequence: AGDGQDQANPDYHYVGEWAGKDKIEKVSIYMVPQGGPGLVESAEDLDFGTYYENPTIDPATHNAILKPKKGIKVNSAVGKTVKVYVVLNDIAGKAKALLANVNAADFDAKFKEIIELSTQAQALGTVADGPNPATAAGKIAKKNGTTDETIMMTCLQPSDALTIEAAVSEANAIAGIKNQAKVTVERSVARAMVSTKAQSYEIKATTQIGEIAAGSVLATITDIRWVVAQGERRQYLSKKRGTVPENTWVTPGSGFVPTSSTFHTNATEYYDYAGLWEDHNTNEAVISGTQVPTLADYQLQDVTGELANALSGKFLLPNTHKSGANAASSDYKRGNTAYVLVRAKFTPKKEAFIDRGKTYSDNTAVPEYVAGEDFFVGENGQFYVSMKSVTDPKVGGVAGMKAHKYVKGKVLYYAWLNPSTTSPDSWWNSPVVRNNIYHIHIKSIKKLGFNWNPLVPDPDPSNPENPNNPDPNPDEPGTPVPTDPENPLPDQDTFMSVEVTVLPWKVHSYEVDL

BAR-XI, BAR analog in which the positively charged Lys residues flanking VXXLL were altered to Asp (peptide)
inhibition of biofilm formation [1]: 40%

BAR peptide (SspB Adherence Region), synthetic peptide comprising residues 1167 to 1193 of the SspB (antigen I/II) protein of S. gordonii
relative density (R.D.) of remaining BAR peptide after 5 minutes with P. gingivalis SMF1 and rMfa1 (relative density) [2]: 47.3
relative density (R.D.) of remaining BAR peptide after 30 minutes with P. gingivalis SMF1 and rMfa1 (relative density) [2]: 8.2

BAR-X, BAR analog in which the internal variable residues in VXXLL were altered to Pro and Gly (VPGLL) (peptide)
inhibition of biofilm formation at 3.38 µM peptide [1]: 15%

BAR-III, cyclic conformationally constrained disulfide bridged BAR peptide with Cys substituted for Leu1177 and Leu1191
specific activity of biofilm inhibition against BAR (fold less than BAR) [1]: 13

BAR-II, derivative of the BAR peptide containing the Arg/Asn1182 and Ile/Val1185 substitutions
I50 of inhibition of P. gingivalis adherence and biofilm formation [1]: 0.52 µM
fold difference of I50 against BAR [1]: 2.5 fold
inhibition of adherence and formation of P. gingivalis microcolonies on the streptococcal substrate at 0.34 µM peptide [1]: 25%
inhibition of adherence and formation of P. gingivalis microcolonies on the streptococcal substrate at 0.85 µM peptide [1]: 82%

LEAAPKKVQDLLKKANITVKGAFQLFS
% inhibition of microcolony formation relative to 0 µM, 0.169 µM BAR, with pepstatin A [3]: 19.9%
% inhibition of microcolony formation relative to 0 µM, 0.169 µM BAR, without pepstatin A [3]: 4.99%
% inhibition of microcolony formation relative to 0 µM, 0.338 µM BAR, with pepstatin A [3]: 44.6%
% inhibition of microcolony formation relative to 0 µM, 0.338 µM BAR, without pepstatin A [3]: 18.6%
% inhibition of microcolony formation relative to 0 µM, 0.845 µM BAR, with pepstatin A [3]: 67.7%
% inhibition of microcolony formation relative to 0 µM, 0.845 µM BAR, without pepstatin A [3]: 42.5%
% inhibition of microcolony formation relative to 0 µM, 1.65 µM BAR, with pepstatin A [3]: 97.8%
% inhibition of microcolony formation relative to 0 µM, 1.65 µM BAR, without pepstatin A [3]: 93.4%
